What was measured:
[1] = target: T1, Histidine-tagged human Siglec-7 (NovoProtein) (human, UniProt Q9Y286 19-357, limits assumed); test: SPR (BiaCore T200, 25 C), antibody captured on anti-mouse IgG, Siglec-7-His 100 nM, single-concentration kinetics
T1 construct: Bought protein; also called purified Siglec-7-his tagged protein; not shown: histidine tag
Description: SPR data was collected at a rate of 10 Hz at 25′ C on a BiaCore T200 instrument. Data analysis was performed using BiaCore T200 Evaluation Software, version 2.0. HBS-EP+ (100 mM HEPES, 1.5 M NaCl, 30 mM EDTA, 0.5% v/v Surfactant P20, pH 7.4) was used as running buffer and for preparing reagents.
Mouse-derived antibodies (25 nM) against Siglec-7 were captured (60 s contact time, 30 μL/min flow rate, 0 s stabilization time) on a CM5 sensor chip (GE Healthcare) immobilized with anti-mouse IgG. Histidine-tagged human Siglec-7 (NovoProtein) was then flowed over the captured anti-Siglec-7 surface (120 s contact time, 30 μL/min flow rate, 300 s dissociation time). Concentration of antigen ranged from 5 nM to 100 nM, depending on information obtained from an initial screen. Duplicate single-concentration trials were performed and bracketed by a blank (0 nM antigen) sample. The chip surface was regenerated in between cycles using 10 mM glycine-HCl, pH1.7 (60 s contact time, 30 μL/min flow rate, 60 s stabilization time). The resulting SPR signal was obtained as the difference in response from measurements performed on a blank flow cell.
Affinity constants (KD) were calculated from the ratio kd/kₐ. For one antibody (clone 1E8), we validated the single-concentration analysis with a multiple-concentration approach (five concentrations of antigen used, plus one blank).

[2] = target: T2, human Siglec-7 expressed on human cells (primary monocytes, dendritic cells, macrophages, NK cells, … (human, UniProt Q9Y286 19-467)); test: cell-based or functional assay
T2 sequence (Q9Y286 19-467): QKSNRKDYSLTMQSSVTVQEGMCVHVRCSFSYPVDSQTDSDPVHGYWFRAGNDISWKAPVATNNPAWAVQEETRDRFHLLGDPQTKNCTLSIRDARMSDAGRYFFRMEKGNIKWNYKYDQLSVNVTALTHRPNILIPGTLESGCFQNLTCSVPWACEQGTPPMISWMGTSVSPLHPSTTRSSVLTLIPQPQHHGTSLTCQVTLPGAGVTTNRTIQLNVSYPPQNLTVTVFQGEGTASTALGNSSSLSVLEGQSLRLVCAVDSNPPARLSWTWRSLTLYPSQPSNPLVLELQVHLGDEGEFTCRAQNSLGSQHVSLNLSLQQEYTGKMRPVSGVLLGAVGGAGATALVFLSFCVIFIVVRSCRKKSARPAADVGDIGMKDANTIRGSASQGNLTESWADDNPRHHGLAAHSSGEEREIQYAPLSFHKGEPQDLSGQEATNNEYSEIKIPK

[3] = target: T3, Siglec-7-Fc (plate immobilized) (human, UniProt Q9Y286 19-357, limits assumed); test: RBC solid adhesion assay, plate-coated Siglec-7-Fc, antibody 0.5 or 1.0 ug/ml; % of RBC binding without antibody
T3 construct: also called Siglec-7-Fc protein; immobilized Siglec-7; not shown: Fc part
T3 sequence (Q9Y286 19-357 limits assumed): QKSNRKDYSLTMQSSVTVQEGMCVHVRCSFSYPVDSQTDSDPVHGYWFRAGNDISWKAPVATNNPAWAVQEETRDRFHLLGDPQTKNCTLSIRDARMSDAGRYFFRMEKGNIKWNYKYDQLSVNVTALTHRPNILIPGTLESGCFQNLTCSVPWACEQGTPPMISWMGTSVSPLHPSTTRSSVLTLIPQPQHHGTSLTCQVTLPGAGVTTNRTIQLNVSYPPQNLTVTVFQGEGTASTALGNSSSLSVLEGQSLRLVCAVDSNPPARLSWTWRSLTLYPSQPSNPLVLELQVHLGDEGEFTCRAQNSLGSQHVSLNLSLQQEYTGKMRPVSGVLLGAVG
Procedure, shortened: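 Plates coated overnight at RT with 5 μg/ml Siglec-7-Fc and blocked in PBS with BSA and 1 mM CaCl₂. Antibody (0.5 or 1.0 μg/ml) bound 1 h at RT, then RBCs (3.0×10⁶ cells/ml) added for 1 h at RT. Bound RBCs lysed and detected by peroxidase at 450 nm, expressed as % of binding without antibody.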

[4] = target: T2, human Siglec-7 expressed on human cells …; test: FACS titration on primary human dendritic cells, donor 359, 4 C
Description: Two Siglec-7 antibodies, 4E3 and 10B5, were titrated 2-fold for a 12-point curve with a concentration range of 6.67-0.00325 nM to assess binding and calculate half-maximal concentration (EC₅₀) for binding to primary human dendritic cells (FIG. 5B). Antibodies were serially diluted and incubated with cells in PBS with 1% BSA, 1 mM EDTA for 1 hour on ice (4° C.). Cells were pelleted and resuspended with goat anti-mouse secondary antibody conjugated with APC (BD Biosciences) at a 1:200 dilution in buffer. Secondary detection antibody was incubated for 30 minutes on ice (4° C.), then cells were washed 3 times in buffer before analyzing on a BD FACS Canto for APC MR. Data were analyzed with FlowJo Software (TreeStar).

[5] = target: T2, human Siglec-7 expressed on human cells …; test: FACS, human primary monocytes, 10 ug/ml mAb
[6] = target: T2, human Siglec-7 expressed on human cells …; test: FACS, human primary dendritic cells, 10 ug/ml mAb
[7] = target: T2, human Siglec-7 expressed on human cells …; test: FACS, human primary macrophages, 10 ug/ml mAb
[8] = target: T2, human Siglec-7 expressed on human cells …; test: cell-based or functional assay; remark: listed apart in the source

T1 sequence (Q9Y286 19-357 limits assumed): as above

B1: anti-Siglec-7 antibody 10B5 (antibody, V domains shown)
VH: QVHLQQSGPELVKPGASVKISCKASGYAFTNCWMNWVRQRPGKGLDWIGRIFPGNGHTNYSGKFKDKATLTEDKSSSTAYMQLSSLTSEDSAVYFCARDYSDYYFDYWGQGTTLTVSS
VL: DVQMTQTTSSLSASLGDRVTISCRASQDINTYLNWYQQKPDGTVKLLIYYTSRLHSGVPSRFSGSGSGTDYSLTISNLEQEDIATYFCQQGNTLPWTFGGGTKLEIK
notes: that light chain holds several Z and differs in its CDRs from S7-10B5.1 / 10B5L1; also called S7-10B5; mAb S7-10B5
- Kd [1]: 3 nM
- Percent Siglec-7 Surface Expression, Macrophages [2]: 3.2%
- Percent Siglec-7 Surface Expression, Microglia [2]: 5.5%
- Percent Siglec-7 Surface Expression, NK cells [2]: 25.5%
- Percent RBC Binding to Siglec-7 [3]: 88.4%
- EC50 [4]: 1.16 nM
- % Positive [5]: 99.2%
- MFI [5]: 417
- % Positive [6]: 99.6%
- MFI [6]: 3230
- % Positive [7]: 99.7%
- MFI [7]: 6030
- Percent Siglec-7 Surface Expression, DCs [8]: 16.8%
- Percent Siglec-7 Surface Expression, Monocytes [8]: 6.7%
- Percent Siglec-7 Surface Expression, U937 cells [8]: 36.5%

From US20200277374A1 (Alector, published 2020)
